# Reference: the supplement of paper PMC10065799, “High-throughput profiling of sequence recognition by tyrosine kinases and SH2 domains using bacterial peptide display” (eLife, 2023)
# Key:
# EPHB1 = EPHB1 (UniProt P54762); assay: phosphorylation enrichment, bacterial display (enrichment ratio); higher = better substrate or ligand; peptides without Tyr show the background
# AncSZ = assay: as above
# FGFR3 = FGFR3 (UniProt P22607); assay: as above
# Fes = Fes (UniProt P07332); assay: as above
# Hck = Hck (UniProt P08631); assay: as above
# EPHB2 = EPHB2 (UniProt P29323); assay: as above
# Fyn = Fyn (UniProt P06241); assay: as above
# c-Abl (mouse) = assay: as above
# FGFR1 = FGFR1 (UniProt P11362); assay: as above
# c-Src = assay: as above
# MERTK = MERTK (UniProt Q12866); assay: as above
# Jak2 = Jak2 (UniProt O60674); assay: as above
# Fer (mouse) = assay: as above
# Grb2 SH2 = Grb2 SH2 (UniProt P62993); assay: SH2 binding enrichment of the phosphorylated peptide, bacterial display (enrichment ratio); higher = better substrate or ligand; peptides without Tyr show the background
# c-Src SH2 = assay: as above
# SHP2-C SH2 = assay: as above
# 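For SH2 binding enrichment of the phosphorylated peptide, bacterial display in this document: peptide library displayed on the E. coli surface as eCPX fusions, selected cells deep-sequenced, score is each peptide's frequency after selection divided by its frequency in the input.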
# 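For phosphorylation enrichment, bacterial display in this document: 11-residue human phosphosite peptides and single-mutation variants displayed on the E. coli surface, counted by deep sequencing, each peptide's frequency after selection divided by its frequency in the unselected input library; frequency after pTyr selection over input frequency; kinase dosed for 20-30% of maximal phosphorylation in three min.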
# FGFR3, sequence (P22607 whole entry, looked up): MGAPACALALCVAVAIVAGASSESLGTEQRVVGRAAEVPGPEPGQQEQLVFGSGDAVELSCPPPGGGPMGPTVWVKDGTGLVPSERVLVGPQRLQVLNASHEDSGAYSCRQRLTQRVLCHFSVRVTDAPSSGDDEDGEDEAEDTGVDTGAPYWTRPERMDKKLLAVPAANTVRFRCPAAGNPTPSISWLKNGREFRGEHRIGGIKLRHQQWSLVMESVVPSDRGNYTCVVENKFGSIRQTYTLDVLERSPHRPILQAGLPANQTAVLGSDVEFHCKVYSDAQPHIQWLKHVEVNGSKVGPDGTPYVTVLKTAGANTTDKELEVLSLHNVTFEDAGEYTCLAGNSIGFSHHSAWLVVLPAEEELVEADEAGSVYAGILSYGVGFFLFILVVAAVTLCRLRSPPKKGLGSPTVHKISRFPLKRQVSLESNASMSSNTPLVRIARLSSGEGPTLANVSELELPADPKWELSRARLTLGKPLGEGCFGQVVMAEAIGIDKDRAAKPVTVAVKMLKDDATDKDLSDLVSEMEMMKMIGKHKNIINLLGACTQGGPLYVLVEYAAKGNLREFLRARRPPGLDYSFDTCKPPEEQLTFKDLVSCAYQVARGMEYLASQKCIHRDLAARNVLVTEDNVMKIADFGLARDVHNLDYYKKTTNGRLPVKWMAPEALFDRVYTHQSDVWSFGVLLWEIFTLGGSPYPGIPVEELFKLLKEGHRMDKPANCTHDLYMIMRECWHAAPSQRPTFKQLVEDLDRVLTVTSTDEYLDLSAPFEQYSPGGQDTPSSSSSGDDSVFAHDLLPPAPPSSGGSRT
# EPHB2, sequence (P29323 whole entry, looked up): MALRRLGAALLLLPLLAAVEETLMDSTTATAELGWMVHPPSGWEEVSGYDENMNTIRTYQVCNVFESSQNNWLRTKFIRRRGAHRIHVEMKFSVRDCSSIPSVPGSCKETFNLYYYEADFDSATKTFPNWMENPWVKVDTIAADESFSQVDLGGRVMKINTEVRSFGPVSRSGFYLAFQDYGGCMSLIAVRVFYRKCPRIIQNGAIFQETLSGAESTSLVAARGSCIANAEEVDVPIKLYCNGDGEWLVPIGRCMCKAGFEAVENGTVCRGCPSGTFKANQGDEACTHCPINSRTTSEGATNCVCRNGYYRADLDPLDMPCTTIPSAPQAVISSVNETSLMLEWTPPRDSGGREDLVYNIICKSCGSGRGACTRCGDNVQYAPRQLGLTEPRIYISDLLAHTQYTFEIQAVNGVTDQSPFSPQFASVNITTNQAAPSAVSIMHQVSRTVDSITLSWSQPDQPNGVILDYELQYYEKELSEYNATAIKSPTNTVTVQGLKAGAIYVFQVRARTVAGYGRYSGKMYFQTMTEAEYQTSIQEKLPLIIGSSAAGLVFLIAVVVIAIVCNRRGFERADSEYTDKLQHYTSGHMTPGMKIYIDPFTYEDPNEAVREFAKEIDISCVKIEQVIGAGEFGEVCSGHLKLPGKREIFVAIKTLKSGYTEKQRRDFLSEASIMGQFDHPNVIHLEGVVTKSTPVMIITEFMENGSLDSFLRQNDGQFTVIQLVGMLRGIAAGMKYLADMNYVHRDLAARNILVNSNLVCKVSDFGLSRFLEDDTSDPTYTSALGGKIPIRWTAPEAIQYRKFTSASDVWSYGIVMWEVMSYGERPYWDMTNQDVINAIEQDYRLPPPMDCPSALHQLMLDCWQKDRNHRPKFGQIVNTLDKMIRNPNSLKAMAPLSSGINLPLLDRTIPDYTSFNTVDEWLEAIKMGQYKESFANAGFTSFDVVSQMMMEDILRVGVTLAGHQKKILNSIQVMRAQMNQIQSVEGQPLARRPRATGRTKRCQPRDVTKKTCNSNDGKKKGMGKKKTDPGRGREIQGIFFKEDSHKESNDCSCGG
# Fes, sequence (P07332 whole entry, looked up): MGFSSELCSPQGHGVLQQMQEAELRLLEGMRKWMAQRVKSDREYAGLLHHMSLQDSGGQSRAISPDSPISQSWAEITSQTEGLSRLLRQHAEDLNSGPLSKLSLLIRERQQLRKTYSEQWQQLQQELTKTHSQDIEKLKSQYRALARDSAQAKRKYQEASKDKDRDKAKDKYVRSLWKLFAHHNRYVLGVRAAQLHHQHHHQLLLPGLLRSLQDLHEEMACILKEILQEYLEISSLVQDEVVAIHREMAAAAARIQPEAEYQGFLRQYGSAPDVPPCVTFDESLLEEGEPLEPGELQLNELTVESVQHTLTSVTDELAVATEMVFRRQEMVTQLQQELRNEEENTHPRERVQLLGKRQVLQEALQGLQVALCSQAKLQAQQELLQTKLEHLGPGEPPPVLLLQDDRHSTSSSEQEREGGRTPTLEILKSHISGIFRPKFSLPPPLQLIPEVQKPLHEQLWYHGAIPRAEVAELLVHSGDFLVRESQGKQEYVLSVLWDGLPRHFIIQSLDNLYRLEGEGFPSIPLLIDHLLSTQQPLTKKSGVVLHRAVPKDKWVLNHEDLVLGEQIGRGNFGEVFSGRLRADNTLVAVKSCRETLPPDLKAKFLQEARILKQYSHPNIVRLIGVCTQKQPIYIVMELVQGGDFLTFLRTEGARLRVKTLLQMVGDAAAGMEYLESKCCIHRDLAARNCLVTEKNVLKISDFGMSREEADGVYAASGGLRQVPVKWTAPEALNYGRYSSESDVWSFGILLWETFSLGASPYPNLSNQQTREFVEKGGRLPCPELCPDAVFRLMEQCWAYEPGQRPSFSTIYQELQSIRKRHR
# FGFR1, sequence (P11362 whole entry, looked up): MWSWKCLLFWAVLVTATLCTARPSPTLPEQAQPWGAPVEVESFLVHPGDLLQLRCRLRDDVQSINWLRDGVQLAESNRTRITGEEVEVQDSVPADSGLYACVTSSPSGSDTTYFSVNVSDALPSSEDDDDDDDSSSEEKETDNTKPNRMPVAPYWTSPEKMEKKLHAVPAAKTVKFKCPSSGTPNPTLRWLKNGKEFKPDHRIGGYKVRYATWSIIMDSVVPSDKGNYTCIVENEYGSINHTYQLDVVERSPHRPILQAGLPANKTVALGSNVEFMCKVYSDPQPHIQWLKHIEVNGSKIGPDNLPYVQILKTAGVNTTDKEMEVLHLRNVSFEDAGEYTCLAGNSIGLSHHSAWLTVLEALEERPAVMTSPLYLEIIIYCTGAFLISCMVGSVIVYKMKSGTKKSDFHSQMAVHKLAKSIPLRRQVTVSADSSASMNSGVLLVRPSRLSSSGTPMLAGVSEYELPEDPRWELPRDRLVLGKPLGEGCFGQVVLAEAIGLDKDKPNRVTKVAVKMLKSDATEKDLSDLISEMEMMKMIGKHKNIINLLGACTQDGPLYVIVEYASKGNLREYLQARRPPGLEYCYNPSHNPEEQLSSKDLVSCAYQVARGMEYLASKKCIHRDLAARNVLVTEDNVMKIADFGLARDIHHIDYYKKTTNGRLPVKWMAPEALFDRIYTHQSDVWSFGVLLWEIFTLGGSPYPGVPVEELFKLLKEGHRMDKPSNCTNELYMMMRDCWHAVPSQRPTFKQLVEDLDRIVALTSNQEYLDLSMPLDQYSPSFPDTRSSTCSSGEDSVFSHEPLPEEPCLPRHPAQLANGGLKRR
# MERTK, sequence (Q12866 whole entry, looked up): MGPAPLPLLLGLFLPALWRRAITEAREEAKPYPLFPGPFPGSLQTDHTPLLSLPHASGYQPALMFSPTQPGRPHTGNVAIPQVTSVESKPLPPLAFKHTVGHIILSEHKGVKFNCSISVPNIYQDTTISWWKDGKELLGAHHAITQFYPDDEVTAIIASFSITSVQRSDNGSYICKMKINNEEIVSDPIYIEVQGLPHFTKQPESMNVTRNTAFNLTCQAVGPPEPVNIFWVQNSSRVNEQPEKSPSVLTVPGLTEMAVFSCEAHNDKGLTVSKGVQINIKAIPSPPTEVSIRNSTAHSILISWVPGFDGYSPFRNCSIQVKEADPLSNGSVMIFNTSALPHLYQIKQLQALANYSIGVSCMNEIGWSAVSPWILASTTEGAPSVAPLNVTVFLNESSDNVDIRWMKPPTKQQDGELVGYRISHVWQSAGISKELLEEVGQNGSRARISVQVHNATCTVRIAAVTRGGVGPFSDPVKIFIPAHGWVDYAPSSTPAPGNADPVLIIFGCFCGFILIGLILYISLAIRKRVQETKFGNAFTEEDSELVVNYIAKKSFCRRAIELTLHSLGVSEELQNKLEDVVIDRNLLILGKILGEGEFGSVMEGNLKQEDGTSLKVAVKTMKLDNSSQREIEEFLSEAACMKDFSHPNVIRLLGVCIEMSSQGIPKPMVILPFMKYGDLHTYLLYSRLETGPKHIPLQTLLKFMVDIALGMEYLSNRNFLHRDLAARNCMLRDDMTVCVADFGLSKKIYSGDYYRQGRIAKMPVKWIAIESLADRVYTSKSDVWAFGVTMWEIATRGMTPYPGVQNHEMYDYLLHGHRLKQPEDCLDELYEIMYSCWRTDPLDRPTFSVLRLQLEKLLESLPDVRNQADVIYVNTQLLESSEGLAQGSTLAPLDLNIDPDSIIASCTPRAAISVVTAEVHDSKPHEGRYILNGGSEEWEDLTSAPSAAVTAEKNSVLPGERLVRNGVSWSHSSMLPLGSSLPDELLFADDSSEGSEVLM
# Hck, sequence (P08631 whole entry, looked up): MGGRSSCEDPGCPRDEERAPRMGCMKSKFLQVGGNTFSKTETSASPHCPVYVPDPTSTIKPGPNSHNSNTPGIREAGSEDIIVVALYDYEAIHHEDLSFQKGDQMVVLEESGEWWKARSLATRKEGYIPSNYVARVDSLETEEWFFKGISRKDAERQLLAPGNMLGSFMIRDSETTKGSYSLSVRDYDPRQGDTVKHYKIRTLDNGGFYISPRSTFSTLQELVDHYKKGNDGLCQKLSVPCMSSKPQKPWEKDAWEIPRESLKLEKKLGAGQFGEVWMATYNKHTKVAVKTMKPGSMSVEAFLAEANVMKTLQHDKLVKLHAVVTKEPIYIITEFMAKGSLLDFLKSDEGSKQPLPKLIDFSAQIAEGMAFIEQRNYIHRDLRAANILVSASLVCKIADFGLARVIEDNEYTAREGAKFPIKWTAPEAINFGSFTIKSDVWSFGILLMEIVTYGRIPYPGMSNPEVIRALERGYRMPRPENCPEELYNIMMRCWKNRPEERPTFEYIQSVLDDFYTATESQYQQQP
Sequence,SH2 binding enrichment (Grb2 SH2),SH2 binding enrichment (c-Src SH2),SH2 binding enrichment (SHP2-C SH2),phosphorylation enrichment (EPHB1),phosphorylation enrichment (AncSZ),phosphorylation enrichment (FGFR3),phosphorylation enrichment (Fes),phosphorylation enrichment (Hck),phosphorylation enrichment (EPHB2),phosphorylation enrichment (Fyn),phosphorylation enrichment (c-Abl (mouse)),phosphorylation enrichment (FGFR1),phosphorylation enrichment (c-Src),phosphorylation enrichment (MERTK),phosphorylation enrichment (Jak2),phosphorylation enrichment (Fer (mouse))
HEHVGYTTLNR [CHN1_Y148_Y143H],0.88,3.47,61.4,0.498,0.63,0.744,0.667,0.57,0.429,0.489,0.936,0.573,0.618,0.44,0.669,0.351
HKLSFCEFDFE [BTK_Y40_Y40C_YF],1.11,0.622,0.937,0.934,3.33,1.34,3.4,0.83,0.787,0.764,1.78,0.844,1.03,0.776,2.48,0.965
HNLDYYKQTTN [FGFR3_Y648_K650Q],0.656,0.839,0.883,0.786,0.979,2.61,1.01,0.704,0.536,0.714,0.793,3.5,0.476,0.658,1.27,0.585
HNLPIYEGYAL [ACTA1_Y168_V165L],0.835,2.85,0.714,17,1.24,0.64,1.16,9.09,22.7,11.6,2.79,0.547,6.97,6.51,0.566,19.3
IDDNQYAYLKA [HNF4A_Y286_E285Q],0.87,1.47,0.898,0.558,0.993,1.69,0.91,2.12,0.667,0.668,1.02,2.93,0.48,0.876,0.753,1
IEDPFYGNDSD [ACP1_Y133_YF],0.942,0.529,0.855,0.782,1.51,0.966,1.55,0.628,0.65,0.556,1.1,0.643,0.75,0.487,2.17,0.755
IFGVSYDEYRY [CFTR_Y512],0.776,1.36,0.896,0.557,0.932,0.664,1.05,0.617,0.504,0.644,0.638,0.688,1.27,0.434,0.882,0.496
IFRASYFRKGG [ALK_Y1282_YF],0.589,0.461,0.513,0.55,1.02,0.625,0.899,0.674,0.621,0.619,0.721,0.518,0.688,0.706,1.11,0.581
IGCHAYGDQYR [IDH1_Y135_R132C],0.687,0.551,0.59,0.593,1.04,0.741,1.19,0.5,0.556,0.424,0.796,0.634,0.493,0.384,0.979,0.569
IGGHAYGDQYR [IDH1_Y135_R132G],0.776,0.416,0.548,0.405,0.52,0.382,0.59,0.428,0.368,0.382,0.386,0.364,0.36,0.357,0.431,0.448
IGKDLYANNVL [ACTA2_Y296_R292G],0.844,0.535,0.574,0.679,1.2,0.64,1.15,0.775,0.634,0.526,0.77,0.45,0.55,0.556,1.03,0.619
IGLHAYGDQYR [IDH1_Y135_R132L],0.847,0.469,0.599,0.469,0.681,0.598,0.834,0.529,0.487,0.498,0.561,0.46,0.473,0.426,0.563,0.48
IGRHAYGDQYR [IDH1_Y135],1.03,0.657,0.681,0.434,0.56,0.447,0.599,0.327,0.406,0.371,0.462,0.398,0.381,0.314,0.534,0.417
IHETTYKSIMK [ACTA1_Y281_N282K],0.804,0.55,3.31,0.324,0.364,0.472,0.583,0.359,0.33,0.309,0.458,0.373,0.384,0.331,0.692,0.372
IHHIDYFKKTT [FGFR1_Y653_YF],0.585,0.526,0.526,0.36,0.718,0.642,0.822,0.52,0.385,0.561,0.501,0.481,0.545,0.444,0.613,0.398

# Now from value to sequence, other results behind:
SH2 binding enrichment (Grb2 SH2),SH2 binding enrichment (c-Src SH2),SH2 binding enrichment (SHP2-C SH2),Sequence,phosphorylation enrichment (EPHB1),phosphorylation enrichment (AncSZ),phosphorylation enrichment (FGFR3),phosphorylation enrichment (Fes),phosphorylation enrichment (Hck),phosphorylation enrichment (EPHB2),phosphorylation enrichment (Fyn),phosphorylation enrichment (c-Abl (mouse)),phosphorylation enrichment (FGFR1),phosphorylation enrichment (c-Src),phosphorylation enrichment (MERTK),phosphorylation enrichment (Jak2),phosphorylation enrichment (Fer (mouse))
0.734,0.678,0.574,HCFNSYTFPRL [PAK7_Y316_S312C_YF],0.752,1.94,0.978,1.72,0.564,0.743,0.707,0.795,0.713,0.469,0.591,1.31,0.804
0.766,0.433,0.962,HFMKLYEEKTG [PARP1_Y618],0.482,0.862,1.08,0.663,0.519,0.46,0.282,0.355,0.464,0.425,0.438,0.592,0.277
0.772,5.15,0.693,HIKHNYECLVY [XRCC5_Y416],2.87,1.05,0.839,1.05,0.638,2.44,0.868,0.882,0.924,1.78,0.548,0.935,0.514
1.1,0.862,1.12,HIPFRYPKEFQ [IDS_Y234],0.521,0.826,0.66,1.26,0.564,0.641,0.424,0.946,0.442,0.756,0.645,0.815,0.344
0.956,1.02,0.605,HLVSEYQQYQD [TUBB3_Y422_D417H],1.07,1.78,1.05,1.61,1.21,1.11,0.652,0.98,0.868,0.939,0.482,1.29,0.72
0.851,0.575,0.846,HRAVEYLLTGI [RAD23A_Y197],0.846,0.991,0.817,1.02,0.7,0.636,0.739,0.709,0.8,0.458,0.549,0.736,0.488
0.842,10.9,0.938,HRDSSYYWEIE [RAF1_Y340_Q335H],3.07,1.69,4.34,1.67,1.47,1.72,1.97,0.818,6.05,1.92,4.59,1.03,0.612
1.01,0.567,1.1,HSDYQYGQRSQ [PKP2_Y168_S169G],0.449,0.618,0.457,0.44,0.574,0.335,0.578,0.484,0.357,0.402,0.439,0.446,0.478
0.931,0.541,0.647,HVEAVYIDIAD [PITPNA_Y140],2.52,1.39,2.96,1.18,0.837,1.27,1.14,0.831,5.13,1.87,0.708,0.922,2.23
1.03,5.15,0.938,HVKHNYECLVY [XRCC5_Y416_I412V],2.87,1.06,1.12,1.2,0.842,2.04,0.922,1.01,0.75,2.04,0.519,1.12,0.573
0.946,0.657,0.703,IAINKYGVSLI [MYO7A_Y2136],0.608,0.837,0.594,1.12,0.497,0.613,0.432,0.744,0.619,0.441,0.426,1.01,0.527
0.852,0.459,0.813,ICTVDYLLRLQ [RYR1_Y3921],0.659,1.21,0.733,1.41,0.542,0.618,0.539,0.966,0.529,0.444,0.428,1.12,0.736
0.731,0.771,0.814,IDSTPYRQWYE [RPS8_Y109],0.455,1.28,0.753,1.05,0.514,0.501,0.492,0.608,0.521,0.606,0.424,0.79,0.51
0.656,0.476,0.777,IENKLCGMSDP [RET_Y1062_Y1062C],0.693,0.987,0.774,1.09,0.562,0.652,0.522,0.625,0.687,0.412,0.428,0.775,0.536
1.2,0.719,0.821,IEPCIYIPEDD [XPNPEP3_Y455_G453C],0.648,1.23,0.87,1.47,0.696,0.603,0.563,0.862,0.738,0.513,0.428,1.25,0.6
0.835,0.48,0.607,IFQASYFRRGD [LTK_Y676_R673Q_YF],0.516,1.05,0.619,1.23,0.517,0.518,0.499,0.789,0.544,0.543,0.628,1.18,0.416
0.815,0.453,0.766,IIGNGYFFRVF [MYBPC3_Y1135_YF],0.433,0.844,0.538,0.98,0.33,0.461,0.258,0.692,0.334,0.288,0.28,0.956,0.394
0.825,0.507,0.605,IKELTYQMEED [MYH7_Y1852_T1854M],0.634,1.19,0.768,1.18,0.646,0.628,0.889,0.667,0.591,1.21,0.432,1.01,0.495
